{"source": "the supplement of paper PMC12636428"}
{"system": "Saccharomyces cerevisiae", "assay": "transcriptional activation domain activity (GFP:mCherry ratio, weighted mean of sorted bins, harmonized to initial dataset scale) (arbitrary fluorescence ratio units); higher = stronger transcriptional activation", "conditions": "beta-estradiol 1 µM; induction time 4 h", "procedure": "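53-aa protein tiles (fungal proteins plus yeast TF control tiles) fused C-terminally to a DBD-estrogen-binding domain-mCherry synthetic TF, integrated in S. cerevisiae (URA3 locus) with a GFP reporter. Cells were induced with 1 uM beta-estradiol for 4 h at 30 C, FACS-sorted into 8 bins by GFP:mCherry ratio and barcodes sequenced. Activity is the read-weighted mean bin fluorescence (GFP:mCherry), averaged over barcodes (median 12); tiles under 50 reads were discarded. New active-learning values were harmonized by linear fit onto the scale of the initial (Hummel et al.) dataset. The assay saturates at low and high signal.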"}
{"sequence": "RLFSKQLHPRMFRVCLTLIIIVAIWGLTFICLVIFACNPVEKSWHVTMPGKCI", "transcriptional activation domain activity": 27500}
{"sequence": "VRVVVANMFGLVIIFLFFFMYFDDFSKEILNAVQVSQIWMYLHFPLHLCQVAF", "transcriptional activation domain activity": 50400}
{"sequence": "SMRAPLFTELGLLPLRFRRLILALRYLSYLITLPHEHYASAALQDAFDLYSQG", "transcriptional activation domain activity": 24100}
{"sequence": "MPEPAAAAAPRQRAFRTKSRLGCLQCKRRHVKCDERRPRCGRCVAAGSDCSLQ", "transcriptional activation domain activity": 17400}
{"sequence": "MYGLVFLLPLFCSLLLFLFCFCCLSPRPTWGLFVSIELFLQARDGLVNWLLAF", "transcriptional activation domain activity": 50100}
{"sequence": "EDEEDAVNGTALSEEDAAERDAKLKRLREEAERKALARRSQAVQRGLPRPANV", "transcriptional activation domain activity": 14900}
{"sequence": "PFPLLPFPLLPFPLLPSPLPIPLLPIPLLSFPLLPFPFLPFPLLSYPLFHFTV", "transcriptional activation domain activity": 44800}
{"sequence": "EGEEGEEGEEGEEGEEGTCCASPLQSLALSRLRLGLSLLVDCISIESMRTYRL", "transcriptional activation domain activity": 34500}
{"sequence": "MLHLVTCISPSLYTSIFFLYLFHYFPSSHFLLNCRTSMHFSLSRLTFIYVLVL", "transcriptional activation domain activity": 50200}
{"sequence": "GKGIGGFNCVAASLGVVQVGMQWSCFAVILLLFLIYFPSASSLGSPATTPTGT", "transcriptional activation domain activity": 36400}
{"sequence": "LLLYLLQLVQALKYEHISTEANRDATQKSSLARFLIARAVDSFMLGNYFYWYL", "transcriptional activation domain activity": 59400}
{"sequence": "AAAAKPASGAKTGGKGKGAKSKKSKATVESEDEGEGADGAPAKKKTKKGKTSD", "transcriptional activation domain activity": 44200}
{"sequence": "QVCTLLGASGGSSFVRGGSYLQGGYGLNTADLWRRNFLVLVGWILFFWLLQTI", "transcriptional activation domain activity": 54800}
{"sequence": "HNTHKELSEQAVIDSFHVLCFSVGTIKNKPMIVYLVRQGPAIWLTMCTLNDLN", "transcriptional activation domain activity": 27200}
{"sequence": "MYICIYLLLGFVVWGISLICLVVIVILYILDNSFCSPYTSCSTSFPFLISLFY", "transcriptional activation domain activity": 40300}
{"sequence": "MEAREGRAGNAFACERCRKHKVRCVPSGTAGICQRCQKARVECIEHVARRRPA", "transcriptional activation domain activity": 29100}
{"sequence": "MYCMRYFVPLLLLPFPDAPPVFVILFLISFFLHQKPCIYCTLLLIALFCSTCY", "transcriptional activation domain activity": 72300}
{"sequence": "LHPAPSSPSSTPRRRAAASTTATRTPAPAPTRTRRCSSSTKPPTASSSTPPRR", "transcriptional activation domain activity": 57400}
{"sequence": "SHLDRRSNQFCRVQFCYKHLLLLWFFLLLFLAYPCQLLCIIIFPNLVSSLCRF", "transcriptional activation domain activity": 31200}
{"sequence": "GRQSKDGKEGKEGKEGSGERRREEKKEAGRERGGEEGGKEGRGRQRAGASGGE", "transcriptional activation domain activity": 25500}
{"sequence": "RSHAGRGRSRSREKHEHHRSHHHREKRRRESEIERRDSKRAASPKSKPSENIH", "transcriptional activation domain activity": 27100}
{"sequence": "TLTLLLRERGYELFLLVHFIFVLYVNFLSCLSVRSPLCIVYYGAWPSMIVWGI", "transcriptional activation domain activity": 64600}
{"sequence": "ALNWYFLGTTMYFLYGESVIYYFKHILLVDRIFLPLATHHRFISFMLYILGFV", "transcriptional activation domain activity": 66300}
{"sequence": "MQNKIVQALNWVCVDLNPPLTSFYFSPFFSFFPTLSSCFNTPLFFFLFSSFFF", "transcriptional activation domain activity": 61800}
{"sequence": "AQKVKNESDTDERPAPVKKGRKAATSKVKDESEDEAPAPAPAKRGRRAAAVKA", "transcriptional activation domain activity": 47500}
{"sequence": "MFWIFYELFLDGQDIHRFSLLLVFFLFFPFASYTYSLLLLILYSVSPYGFLTS", "transcriptional activation domain activity": 38000}
{"sequence": "TSSPSAHSSTNTNVVFVFGSEDKRVKEVGDALKVKLAVKGGGKGVKWSGKFTG", "transcriptional activation domain activity": 25400}
{"sequence": "ELGAIEESKLCIVLLGTFRLLSFDCRTFAKYVRPLSLERLFNHTSRIVRLLAI", "transcriptional activation domain activity": 44000}
{"sequence": "MYSFRLISLMLLSAIALVAANPLMIRIWPLRGGSLTFNLLLLFRWLDFQFVSH", "transcriptional activation domain activity": 59900}
{"sequence": "LLILSLTVPFLHGLLRPHTHYVHLLVVVFLTFSPFFVILTISYEGLFYVIFCI", "transcriptional activation domain activity": 57900}
{"sequence": "NWHHSIQVPYSFVANYDHPVCHMLHRWLPLYIPAVALRMHILTYLLLVAFFSL", "transcriptional activation domain activity": 57700}
{"sequence": "SFLNDAMSEIHTFGDFNGELDSTFLEFSGTEIKEPNNFITENTNAIETAAASM", "transcriptional activation domain activity": 113000}
{"sequence": "ARAYISLCWRMIVTKGLHRPPVSSVVDKALRKRQLKLLMVLYYNDFTNAVYSG", "transcriptional activation domain activity": 52300}
{"sequence": "MALEFLMDDIHLNKFLLLGYGVISKFLIVCHRYSKVVGETYYVIHTGIFYLLG", "transcriptional activation domain activity": 56200}
{"sequence": "EGKGKKGEKREREKRRGRGGKREKRRKREGRRRREKREGKEGGGEKEEKEGEE", "transcriptional activation domain activity": 29000}
{"sequence": "SKMLTEFKQKLRLDYFMLLDLRLWKDMRMCLRKMFISTLVANLSYKRILGVRF", "transcriptional activation domain activity": 73200}
{"sequence": "FSFFFFLFSLFLSFPSFLLPSFLLLFLSFYFSPSYLLLCLFSLIFYKLWPLFL", "transcriptional activation domain activity": 25500}
{"sequence": "YYLGKYQENSKEKRKFQVIRSGMSELNHILYMALDNATNMVIMWMLLVQYHAT", "transcriptional activation domain activity": 55600}
{"sequence": "KLSFRLLVLSSSEILVCFPVYPSFVGYDPIFSGFRVKLLIFLLSLWHLLLLFV", "transcriptional activation domain activity": 42300}
{"sequence": "MLQQRGILRVFRIGLFILFVILLFSFLVFVTFFISLAFPHLLLVLCIFFHFFN", "transcriptional activation domain activity": 44200}
{"sequence": "DRMYNQISQVFDHLYARQDRTWGRVAEDFRSVLLIRWYFDAASLWVTLWCRYT", "transcriptional activation domain activity": 48600}
{"sequence": "RNSSLEEEDQVVAEGEVVGAAEEEGGEGEGREEVVVTEGREDMAVVGMAGMAD", "transcriptional activation domain activity": 35400}
{"sequence": "KFSLGGALYLLTRYCVLLQLIFDVTYEMQPPWTLNNVVWVANISDLVSGISIH", "transcriptional activation domain activity": 34400}
{"sequence": "GYDDTVVLDGCYAAAIRWKSFAYVSTAVRISWKRYLMRFLLRISPWLTIIFSV", "transcriptional activation domain activity": 57600}
{"sequence": "GKGKPRDNAKEEEKEEERKIPQAIVVSGLHHASTAAQLALSSALREGEIEMDG", "transcriptional activation domain activity": 15000}
{"sequence": "RLHILVGFVTVAEVTNIVFITRSSWRILIGGVERPDLILIPPATSVGTPILNG", "transcriptional activation domain activity": 35000}
{"sequence": "SFSSIIILLALCLVLLAVFFYFPFFFCLFCPYVLCCHPIFPPTLSQVSILAYY", "transcriptional activation domain activity": 44700}
{"sequence": "KQYCVRPNSGRIEAGKDVEVQVLLQAMKEDPPQGYKCRDKFLVQSVAITADRE", "transcriptional activation domain activity": 21700}
{"sequence": "YIIPFAWLAAIGHFAVSLVIFDFAPLIHTWDVTLETLSHWLFYFRLSSILYNF", "transcriptional activation domain activity": 35200}
{"sequence": "LLPGPPFPFPPLLLFFLVVFLSCSFFELSFMFLFFVYFFFISLFFCIFFFDNH", "transcriptional activation domain activity": 34700}
{"sequence": "AMFAVSILIMIQVNTSAVFFAVDTMLLYLCMELGFTFIYTILVTSRLLVMRCQ", "transcriptional activation domain activity": 56600}
{"sequence": "SDKLHRLRWRLGSLEDVLTTFSYLKFEQYLIPIVYLLLRRHTNIIFLAAHWVL", "transcriptional activation domain activity": 64000}
{"sequence": "CLRVRGVLILTIERLLNDFADAEYRKYAKAILHCHQPYPNSSDCYCQILRSLV", "transcriptional activation domain activity": 36900}
{"sequence": "MFTGTLLVVFMHYGWSFFLNCCLGCLVISFCFWYVKLWLLIGRCILVLCIVAR", "transcriptional activation domain activity": 69000}
{"sequence": "RAKKDAKESTTSKDTGTGKGAGSSREGRGSRNTSSRGRGSASGRQSTRKSRAR", "transcriptional activation domain activity": 29300}
{"sequence": "FFLLFHIFHCLWGPRATILLFFSILLFFYPISTFMRCIIHRVFLLFFAFFFFL", "transcriptional activation domain activity": 22200}
{"sequence": "MCPVLFCFYSLMILIFFLSFLFRTSYIYTLYFPGLFVCCLFFLFLLFLSLSQW", "transcriptional activation domain activity": 73200}
{"sequence": "IIFLIMRAMVGLQVLNENVIEKILMYLKLQWVAVFIYWQVLWLVKFSLLIFFK", "transcriptional activation domain activity": 75400}
{"sequence": "YPKALPFYGKILGYMTSIYDTIARLAFLKTLQPQGPLDYMLWLVIMTATRIFY", "transcriptional activation domain activity": 53800}
{"sequence": "LVLYHDKFTTYLFAVFFFSLLPHVISSLFFFFFFFFWFLIKCIAMTPQFLFFF", "transcriptional activation domain activity": 34200}
{"sequence": "LQQLLLRDYFKYFIKVFQDLSTYERKSYFVFRQMAYAIISIAQGRGCIEFQCH", "transcriptional activation domain activity": 43100}
{"sequence": "MGCLHFSLFVAFWVFIAFPPSVSYHLALYLLLLLLFILFLLMCGLLRAFGLPV", "transcriptional activation domain activity": 36700}
{"sequence": "LPSLAQIDVLIRRERMVTIERHPLCLSLVVASQYTLGPLLLLRIVHCIYKTYG", "transcriptional activation domain activity": 58200}
{"sequence": "VFFLSLCFASFFPLGHLCWAKGLFHTLEFIAPISRSVSCYVMGLVLYTFHLPE", "transcriptional activation domain activity": 22000}
{"sequence": "WFRDMRFPYVPRAFSRLLKNLLVAVYVSLFNSCIFWFTSSRLHPQRRFIARYL", "transcriptional activation domain activity": 64800}
{"sequence": "KKQEERKEGYRRKVEENKEKREGREKREKDEFWRREGKKRRYQEGDGAGAGAG", "transcriptional activation domain activity": 38100}
{"sequence": "EDCDFLGDDTCSIVNHINCQHGINFDIQFANPDSFLPGSISKEKHHLLHCPNP", "transcriptional activation domain activity": 77900}
{"sequence": "IQAYLVNFLSSACLMNFWVTLTFLLGGEPYHYSTYVLLVGWMFIYLILLFGLI", "transcriptional activation domain activity": 37700}
{"sequence": "KWVLSILEFFVVHGFFSVTRKNAKSSLQAIHHVPNPKFSDTMKQRCRDRLFTC", "transcriptional activation domain activity": 51700}
{"sequence": "SRTTSLGVWFLVIQMIWYGLFGALYIWFFCQDWYLFDVHLVFDYLMRFILCLM", "transcriptional activation domain activity": 40700}
{"sequence": "KKPAAKKQKTAPAEKINTTDDSKKARGRPKKADSNGTAKAAQKKKEPKAAATA", "transcriptional activation domain activity": 32900}
{"sequence": "KHLEAADGVEDDHRSTVIDQGNDELLVKWASDEGIIEKKPQGRFRLILGGGAS", "transcriptional activation domain activity": 70100}
{"sequence": "MLGPFSVFLSVFPPFAAGFGTALFPFFFSCCLCFCCWCTSFALFAPLTALFAV", "transcriptional activation domain activity": 53300}
{"sequence": "GGLWNLVMWHWMLSFLAGICCFFLQILTYIWLQESSVIRISTSCLAGFWILPL", "transcriptional activation domain activity": 91700}
{"sequence": "MSSHDGYRTRRTPQACVACRRRKTKCDGARPRCRHCASRHRQCVWPDVAEGAS", "transcriptional activation domain activity": 39900}
{"sequence": "FPRLTDMVCELEDYLRPLAEHARAADVELVEIAVVSVYVNILNFSWKARCVFV", "transcriptional activation domain activity": 43600}
{"sequence": "SSPSSQTSSSTSVVLVFGLEEKRVKEAGEQLKSKLGVKGGGKGPRWSGKFVGV", "transcriptional activation domain activity": 51600}
{"sequence": "DNLLGMDYYNIDDLLTQELRDLDIPLVPSPKTGDGSSDKKNIDRTWNLGDENN", "transcriptional activation domain activity": 79900}
{"sequence": "SNASLSAQHPLGIDEEDLSSKPRCQRCRKSKKGCDRQRPCGRCKDAGIGIEGC", "transcriptional activation domain activity": 35300}
